Data published in the supplement of paper PMC9170038.

Test system: MS2 coat protein
Assay: apparent KD of MS2 coat protein; designed switch direction (-1 OFF switch, 1 ON switch): 1; higher = weaker reporter binding
Method in brief: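 Transcription of designed RNA switches on Illumina chips was done by stalled E. coli RNA polymerase. SNAP-549-labelled MS2 coat protein was then titrated in doubling steps from 0.7 or 1.5 nM to 3 µM, with steps of 0.8–1.5 h at the lowest and 10–20 min at the highest concentration. The per-design median over clusters of curve-fitted normalised fluorescence is reported as apparent KD.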

[1] = input ligand: microRNA oligo, concentration not stated
[2] = Eterna round: R95, input ligand: FMN 200 uM
[3] = Eterna round: R95, input ligand: microRNA oligo, concentration not stated
[4] = Eterna round: R95, input ligand: none

Sequence | apparent KD of MS2 coat protein (input ligand: FMN 200 uM) [µM] | apparent KD of MS2 coat protein [1] [µM] | apparent KD of MS2 coat protein (input ligand: none) [µM] | apparent KD of MS2 coat protein [2] [µM] | apparent KD of MS2 coat protein [3] [µM] | apparent KD of MS2 coat protein [4] [µM]
ACAUGAGGAUCACCCAUGUAUAGAUUUGAAUCUUAAGUUACGUAGGAUAUCGUGUUUAGUAUCAUCGAGAAGGACGAUCUGAUA [JR_SSNG3_Sub067] (Eterna round: R96, puzzle: Same State NG 3) | 0.0197 | 0.0172 | 0.026 |  |  | 
ACAUGAGGAUCACCCAUGUAUUUAUAUGAAUCUUAAGUUACGUAGGAUAUCGUCUAUACUAUCAACGAGAAGGACGAACUCAAA [JR_SSNG3_Sub069] (Eterna round: R96, puzzle: Same State NG 3) | 0.00951 | 0.0153 | 0.0174 |  |  | 
ACCCGCGGGCCACAUGAGGAUCACCCAUGUGACCGGUGAUCCAAGGAUAUACGUGUGAUAGACGCGUAGAAGGUGGCCAAAACU [Rirazaedat] (Eterna round: R96, puzzle: Same State NG 3) | 0.127 | 0.0293 | 0.0319 |  |  | 
ACGUCGAUAUCACAGGAUAUACUCACAUCUACAUGAGGAUCACCCAUGUAGCGGUAUUCCGGUGCGUAGAAGGGUGAUGGACGAC [Same State 2 - Mod of Artece v.4] (puzzle: Same State 2) |  |  |  | 0.0144 | 0.0124 | 0.0122
ACUCGGCAGAUAGGAUAUCCUGCAUGGAUAGUAGGAGAAGGAUCGUGCGCACAUGAGGAUCACCCAUGUGCCAAAUAAUAACAA [Reatedor] (Eterna round: R96, puzzle: Same State NG 1) | 0.011 | 0.0128 | 0.0184 |  |  | 
ACUUAGUACAAUUUAGAUCUACAUGAGGAUCACCCAUGUACUGAGGAUAUCAGCUCGAAUAGAGCUGAGAAGGCAGAAGUACUU [SSNG3/8-A1] (Eterna round: R96, puzzle: Same State NG 3) |  | 0.192 |  |  |  | 
AGAGAACAUGAGGAUCACCCAUGUAGGAUGGGCAUAGGAUAUAGAAGGAUGAAGGAGAAACUAGAAGGAUGAUGGA [JR_SS1_Sub076] (puzzle: Same State 1) |  |  |  | 0.107 | 0.145 | 0.235
AGAGAACAUGAGGAUCACCCAUGUGGGAGAUGCAUAGGAUAUAGGAGAGAGAGCGAGGAACUAGAAGGAUGAUGGA [JR_SS1_Sub081] (puzzle: Same State 1) |  |  |  | 0.0797 | 0.0637 | 0.191
AGAUAUCCACGACAUGAGGAUCACCCAUGUUGCUACGACAUGGAGGAUAUUCACGAUACACCUGUGAAGAAGGCUAAGGAUAUU [Eternabot solution 16] (Eterna round: R96, puzzle: Same State NG 3) | 0.631 | 0.508 | 0.776 |  |  | 
AGAUCAUGACGAGGAUAUGGAACAUGAGGAUCACCCAUGUAUGUUCCAUAACGCGAAUAAAGAAUCCAGAAGGCGUCGUGGUCA [Mat - Same State NG 2 - JL mod - D30] (Eterna round: R96, puzzle: Same State NG 2) | 0.0102 | 0.0789 | 0.0891 |  |  | 
AGAUCAUGACGAGGAUAUGGAACAUGAGGAUCACCCAUGUAUGUUCCAUAACGCGAAUGACGAAUCCAGAAGGCGUCGUGAUCA [Mat - Same State NG 2 - JL mod - D26] (Eterna round: R96, puzzle: Same State NG 2) | 0.0181 | 0.0921 | 0.116 |  |  | 
AGCCGAGACACAGGAUAUAGAUAUCUACAUGAGGAUCACCCAUGUAGCAACACGUGGUAGUGAUUCUAGAAGGGUGCUCGGCGC [Omei SS(NG)2 Cv8] (Eterna round: R96, puzzle: Same State NG 2) | 0.0253 | 0.17 | 0.189 |  |  | 
AGCCUGCCGCAAGGAUAUGAAGCUUUCGCUCCGUCAGAAGGUGCACAUGAGGAUCACCCAUGUAUGCAGGCCAAGAAAUAAAAC [Inbilerate] (Eterna round: R96, puzzle: Same State NG 1) | 0.0201 | 0.0339 | 0.0529 |  |  | 
AGCGAAAUAAGCAAGGAUAUGUAAUUUGGCACAUGAGGAUCACCCAUGUCAAUCCAUUUUUUGGAACAGAAGGUGCAUUUUUUUU [ak third] (puzzle: Same State 2) |  |  |  | 0.069 | 0.1 | 0.102
AGCGAACAGGCUAACAUGAGGAUCACCCAUGUGGACUCAUGUUAGGAUAUCGGGAAGGAGGAAACCGAGAAGGGACGGUGAGCC [AK SSNG3-V2-46] (Eterna round: R96, puzzle: Same State NG 3) | 0.332 | 0.0146 | 0.0306 |  |  | 
AGCUAGUACCGAGGAUAUACAUACAUGAGGAUCACCCAUGUAUACAUGAAAUAUUGAGACUACAUGUAGAAGGCGGUACUAGCA [Mat - Same State NG 2 - JL mod - D44] (Eterna round: R96, puzzle: Same State NG 2) | 0.0136 | 0.0284 | 0.0464 |  |  | 
AGCUAGUACCGAGGAUAUACGUACAUGAGGAUCACCCAUGUAUACAUGGUUUAAUGAGACUACAUGUAGAAGGCGGUACUAGCA [JL SSNG2 1.25] (Eterna round: R96, puzzle: Same State NG 2) | 0.175 | 0.532 | 0.636 |  |  | 
AGCUAUCGAAAACGAUAGCAAAAGCAUGUACAUGAGGAUCACCCAUGUCAUGUACAAGCUUUUUGUUCGUCUUAAAA [Zipper 23 - 14] (puzzle: Sensor for hsa-mir-208a) |  |  |  | 0.43 | 0.0117 | 0.334
AGCUAUCGCGUACGAUAGCUGAAGCGUGUACAUGAGGAUCACCCAUGUCAUGUGCAAGCUUUUUGCUCGUCUUAUUG [JL-shm-2.29 JL mod] (puzzle: Sensor for hsa-mir-208a) |  |  |  | 0.353 | 0.0148 | 0.459
AGGCCAUCGGGAGGAUAUGGCACCUUAUUGGUGCCAGAAGGUCCAACAUGAGGAUCACCCAUGUGGGAGAGUUCUAAUGAACAU [Fiskers NG1(SS) - 3] (Eterna round: R96, puzzle: Same State NG 1) | 0.0284 | 0.0253 | 0.0322 |  |  | 
AGGCUCAGACGAGGAUAUAUGUAAUAACAUGAGGAUCACCCAUGUGUCGAGCUUCGGCUCGACACAUAGAAGGCGUCUGAGCCA [SSNG2/2-A1] (Eterna round: R96, puzzle: Same State NG 2) | 0.00875 | 0.0174 | 0.0257 |  |  | 
AGGCUCAGACUAGGAUAUACGUGGUCACAUGAGGAUCACCCAUGUCUCGAGCUUCGGCUCGAGGCGUAGAAGGAGUCUGAGCCA [SSNG2/6-D1] (Eterna round: R96, puzzle: Same State NG 2) | 0.119 | 0.26 | 0.371 |  |  | 
AGGCUCAGAGCAGGAUAUAUGUCUCGAGCUUCGGCUCGAGACAUGAGGAUCACCCAUGUAAUAACAUAGAAGGGCUCUGAGCCA [SSNG2/1-B1] (Eterna round: R96, puzzle: Same State NG 2) | 0.0112 | 0.0458 | 0.0634 |  |  | 
AGGGAGGAAGCUGAGGAUAUCGUAGGGAGGACAUGAGGAUCACCCAUGUGUAUAGAAUUGGAGGACGAGAAGGCAGAGGAGUGGG [JR_SS2_Sub051] (puzzle: Same State 2) |  |  |  | 0.0566 | 0.0585 | 0.0582
AGUCCAGCAAGAGCUGGACAAAAGCAUGUACAUGAGGAUCACCCAUGUUCAUGUACAAGCUUUUUGCAAGUCAAAAG [Mat - hsa-mir-208a - Mod of JL - 73] (puzzle: Sensor for hsa-mir-208a) |  |  |  | 0.321 | 0.0239 | 0.416
AGUCCAGCCAGAGCUGGACAAAAGCAUGUACAUGAGGAUCACCCAUGUUCAUGUACAAGCUUUUUGCAAGUCAAAAU [Mat - hsa-mir-208a - Mod of JL - 83] (Eterna round: R96, puzzle: Sensor for hsa-mir-208a) | 0.578 | 0.016 | 0.592 |  |  | 
AGUCCAGCCAGAGCUGGACAAAAGCAUGUACAUGAGGAUCACCCAUGUUCAUGUACAAGCUUUUUGCAAGUCAAAAU [Mat - hsa-mir-208a - Mod of JL - 83] (puzzle: Sensor for hsa-mir-208a) |  |  |  | 0.614 | 0.0168 | 1.11
AGUCCAGCCUGAGCUGGACAAAAGCAUGUACAUGAGGAUCACCCAUGUCAUGUACAAGCUUUAUGCUCGUCUUAAAA [Mat - hsa-mir-208a - Mod of JL - D15] (puzzle: Sensor for hsa-mir-208a) |  |  |  | 0.224 | 0.0156 | 0.298
AGUCCAGCCUGAGCUGGACAAAAGCAUGUACAUGAGGAUCACCCAUGUCAUGUACAAGCUUUUUGCAAAUCUUAAUA [Mat - hsa-mir-208a - Mod of JL - D34] (Eterna round: R96, puzzle: Sensor for hsa-mir-208a) | 0.999 | 0.0146 | 1.18 |  |  | 
AGUCCAGCCUGAGCUGGACAAAAGCAUGUACAUGAGGAUCACCCAUGUCAUGUACAAGCUUUUUGCAAAUCUUAAUA [Mat - hsa-mir-208a - Mod of JL - D34] (puzzle: Sensor for hsa-mir-208a) |  |  |  | 0.603 | 0.0146 | 0.807
